Measured values from publication PMC4856222.
Like-named read-outs stand apart in the source and are kept apart here.

Legend:
NKG2D (Homo sapiens) [1] = target: NKG2D (Homo sapiens) (UniProt P26718); conditions: cited from earlier work
NKG2D (Homo sapiens) [2] = target: NKG2D (Homo sapiens) (UniProt P26718); conditions: cited from earlier work; remark: listed apart in the source
[3] = target: NKG2D (in the affinity measurement) (UniProt O54709)
Sequence of UniProt O54709 (O54709 whole entry): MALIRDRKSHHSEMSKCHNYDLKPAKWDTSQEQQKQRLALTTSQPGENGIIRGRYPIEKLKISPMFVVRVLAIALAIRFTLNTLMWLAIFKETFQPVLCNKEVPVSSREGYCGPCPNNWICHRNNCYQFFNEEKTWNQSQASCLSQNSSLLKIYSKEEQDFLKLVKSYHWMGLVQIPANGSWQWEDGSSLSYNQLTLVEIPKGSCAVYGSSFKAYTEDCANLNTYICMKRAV

Sequence of UniProt P26718 (P26718 whole entry): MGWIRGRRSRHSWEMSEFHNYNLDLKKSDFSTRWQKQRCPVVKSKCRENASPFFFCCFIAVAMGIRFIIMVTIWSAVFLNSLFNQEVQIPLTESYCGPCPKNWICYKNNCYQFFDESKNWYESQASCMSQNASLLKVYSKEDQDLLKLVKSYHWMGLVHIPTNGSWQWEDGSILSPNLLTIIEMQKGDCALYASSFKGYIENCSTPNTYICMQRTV

Question: For MICA (from UniProt Q29983), which Kd (NKG2D (Homo sapiens) [1]) is on record?
Answer: 1 µM

Question: Which Kd (NKG2D (Homo sapiens) [2]) does the source give for MICB (from UniProt Q29980) here?
Answer: 1 µM

Question: Which Kd [3] does the source give for “secMULT1 (secreted ectodomain fragment of HA-MULT1) (domain or fragment)” here?
Answer: 0.019 µM

Question: Which Kd [3] does the source give for shed HA-MULT1 (domain or fragment) here?
Answer: 0.013 µM
